Measurements published in patent publication US20250019450A1 (DIAGONAL THERAPEUTICS, published 2025).
Where a chain is given by its changes, count along the chain named.

B1: VHH25B1 (VHH)
VHH: QVQLQESGGALVQPGGSLRLSCVVSGFTSDYFAIGWFRQAPGKEREGVSCIGSSDGSTIYSDSVKGRFTISRDNAKNTVYLQMNSLKPEDTGVYYCALDRGRRTIIGYACYATMKYWGKGTPVTVSS
B2: VHH50B1 (VHH)
VHH: QVQLVESGGGLVQAGGSLRLSCAASGRAFSRYSMGWFRQAPGKEREFVAANYWSNGWTDYADTVKGRFSISRDNAKNTVYLQMNSLKPEDTAVYYCAGRSSSIPSADVVGYDYWGQGTQVTVSS
B3: VHH54B1 (VHH)
VHH: QVQLVESGGGLVQAGGSLRLSCAASGGPFSGYVMGWFRQVSGKEREFVAGITGISSTYFADSVKGRFTISRDNAKNMVYLQMNSLKPEDTAVYYCAAVNSFGVIPTSPNGMDYWGKGTLVTVSS
B4: VHH136B1 (VHH)
VHH: QVQLQESGGGLVQAGGSLRLSCAAPGRYAVGWFRQAPGKEYEFVAAITVSGGSKYYEDSVKGRFTISRDNAKNTVYLEMNSLKAEDTAVYYCAARTPKFGSGWYNRRGEYDYWGQGTQVTVSS
B5: VHH58B1 (VHH)
VHH: B4 VHH with Q5V, T65A, E78Q
B6: VHH172B1 (VHH)
VHH: B4 VHH with Q5V, T120A
B7: VHH67B1 (VHH)
VHH: QVQLVESGGGLVQAGGSLRLSCAASARIFNSYAVAWFRQTPGKEREFVASISWSGGSTNYADSVKGRFTISRDNAKNTVFLQMNSLKPADTAVYYCAADRNYYPSVLGKYTYWGQGTQVTVSS
B8: VHH72B1 (VHH)
VHH: EVQLVESGGGLVQAGGSLRLSCAASGLTFRNYAMAWFRQAPGKEREFVAGITWGGGLTHYVDSVKGRFTISRDNGKNTVYLQMNSLKSEDTAVYYCAGKTQGSTWYHLTPDGYDYWGQGTQVTVSS
B9: DGL575 (bispecific antibody, V domains shown)
V domain 1: QVQLVESGGGLVQAGGSLRLSCAASRSISSFNEMAWYRQAPGEQRELVATIVSTVGFTNYADSVKGRFTISRDNAKNTVYLQMNSLKAEDTAVYYCNARRISTDYWGQGTQVTVEP
V domain 2: QVQLQESGPGLVKPSQTLSLTCTVSGGSITTNYYYWSWIRQPPGKGLEWMGAIAYSGSTYYSPSLKSRTSISRDTSKNQFTLQLSSVTPEDTAVYYCASGINFYSNYPTLNEYDYWGQGTQVTVEP
B10: DGL445 (bispecific antibody, human IgG1, lambda)
heavy 1: not shown
heavy 2: QVQLVQPGAEVKKPGASVKVSCKASGYTFTGYYMHWVRQAPGQGLEWMGWINPKSGGTNYAQKFQGRVTMTRDTSISTAYMELTRLRSDDTAVYYCARDQGYGDYVLKHWGQGTLVTVSSASTKGPSVFPLAPSSKSTSGGTAALGCLVKDYFPEPVTVSWNSGALTSGVHTFPAVLQSSGLYSLSSVVTVPSSSLGTQTYICNVNHKPSNTKVDKKVEPKSCDKTHTCPPCPAPEAAGAPSVFLFPPKPKDTLMISRTPEVTCVVVDVSHEDPEVKFNWYVDGVEVHNAKTKPREEQYNSTYRVVSVLTVLHQDWLNGKEYKCKVSNKALPAPIEKTISKAKGQPREPQVCTLPPSRDELTKNQVSLSCAVKGFYPSDIAVEWESNGQPENNYKTTPPVLDSDGSFFLVSKLTVDKSRWQQGNVFSCSVMHEALHNRFTQKSLSLSPG
light: SYVLTQPPSVSVAPGQTARITCGGDNIGSKSVHWYQQKPGQAPVPVVYDDSDRPSGIPERFSGSNSGNTATLTISRVEAGDEADYYCQVWDSSSDHVVFGGGTKLTVLGQPKAAPSVTLFPPSSEELQANKATLVCLISDFYPGAVTVAWKADSSPVKAGVETTTPSKQSNNKYAASSYLSLTPEQWKSHRSYSCQVTHEGSTVEKTVAPTECS
B11: DGL533 (bispecific antibody, V domains shown)
V domain 1: EVQLVESGGGLVQPGGSLTLSCTASGFRFSDRSMGWYRQAPGKQRELVAAITVGGSTNYADSVKGRFTISRDNAKNTVYLQMNSLKPEDTALYYCNRRYPPDDYWGQGTQVTVEP
V domain 2: QVQLVESGGGLVQAGGSLRLSCAASGRTFSSYAMGWFRQAPGKEREFVSAISWSGLSTYYVESVQGRFTISRDNAKNTVYLQMNSLKPEDTAVYYCAASRIYTNYVARSYEYDDWGQGTQVTVEP
B12: DGL504 (bispecific antibody, V domains shown)
V domain 1: B8 VHH with S125E, S126P
V domain 2: B11 V domain 2
B13: DGL574 (bispecific antibody, V domains shown)
V domain 1: B9 V domain 1
V domain 2: QVQLVESGGGLVQAGGSLRLSCAASGRTFSRYRMGWFRQAPGKEREFVAAITKSGATTYDADSVKGRFTISRDNAKNTLYLQMNSLKPEDTAVYYCAASYHSNWWPKNADEYAYWGQGTQVTVEP
B14: DGL478 (bispecific antibody, V domains shown)
V domain 1: B4 VHH with Q5V, T65A, E78Q, S122E, S123P
V domain 2: QVQLVESGGGLVQAGGSLRLSCAASGRIFSAYRMGWFRQAPGKEREFVAGITWRGQTTYYAASVKGRFTISKDNAKKTVYLQMNSLKPEETAVYYCAVETNGLGRWDRPSEYDYWGQGTQVTVEP
B15: DGL552 (bispecific antibody, V domains shown)
V domain 1: QVQLVESGGGLVQAGGSLRLSCAASGRTFGTYAMGWFRQAPGKERDFVARISNSGAFTHYADSVKGRFTISRDNAKNTVYLHMNSLENGDTAAYYCVATRGTNSAYYTRSTMYEYWGQGTQVTVEP
V domain 2: B14 V domain 2
B16: DGL448 (bispecific antibody, human IgG1, lambda)
heavy 1: not shown
heavy 2: EVQLVESGGGLVQPGGSLRLSCAASGFTFSTYDMHWVRQATGKGLEWVSLIDTAGDTYYPDSVKGRFTISRENAKNSLYLQMNSLRAGDTAVYYCAREGWGYFDYWGQGALVTVSSASTKGPSVFPLAPSSKSTSGGTAALGCLVKDYFPEPVTVSWNSGALTSGVHTFPAVLQSSGLYSLSSVVTVPSSSLGTQTYICNVNHKPSNTKVDKKVEPKSCDKTHTCPPCPAPEAAGAPSVFLFPPKPKDTLMISRTPEVTCVVVDVSHEDPEVKFNWYVDGVEVHNAKTKPREEQYNSTYRVVSVLTVLHQDWLNGKEYKCKVSNKALPAPIEKTISKAKGQPREPQVCTLPPSRDELTKNQVSLSCAVKGFYPSDIAVEWESNGQPENNYKTTPPVLDSDGSFFLVSKLTVDKSRWQQGNVFSCSVMHEALHNRFTQKSLSLSPG
light: QSALTQPPSVSGSPGQSVTISCTGTSSDVGSYNRVSWYQQPPGTAPKLMIYEVSNRPSGVPDRFSGSKSGNTASLTISGLQAEDEADYYCSLYTGSSTVVFGGGTKVTVLGQPKAAPSVTLFPPSSEELQANKATLVCLISDFYPGAVTVAWKADSSPVKAGVETTTPSKQSNNKYAASSYLSLTPEQWKSHRSYSCQVTHEGSTVEKTVAPTECS
B17: DGL541 (bispecific antibody, V domains shown)
V domain 1: QVQLVESGGGLVQAGGSLRLSCAASGRTFRTYAMGWFRQAPGKDREVVGIAAWKVASTYYVDYGDSVRGRFTISRDDAKSTVYLQMNNLMPEDTAVYYCAAGAFRTDWRSYAYWGQGTQVTVEP
V domain 2: B11 V domain 2
B18: DGL585 (bispecific antibody, V domains shown)
V domain 1: QVQLVESGGGLVQAGGSLRLSCAASGRTFSSYVMGWFRQAPGQEREFVAAIMRNGIMTYYADSVKGRFTISRDNAKNTVYLQMNTLKPDDTAVYYCAAASRVGVSISQSSSYTSWGQGTQVTVEP
V domain 2: QVQLVESGGGLVRPGGSLRLSCAASGFTFSSNGMHWFRQAPGKGLEWVSSIGSGGTSIYYADSVKGRFTISRDNAKNTLYLQMNSLKSDDTAVYYCSKEVTGATRGQGTQVTVEP
B19: DGL579 (bispecific antibody, V domains shown)
V domain 1: B9 V domain 1
V domain 2: B11 V domain 2
B20: DGL503 (bispecific antibody, V domains shown)
V domain 1: B8 VHH with S125E, S126P
V domain 2: B14 V domain 2

These binders were tested against T1, human IL-12Rβ1-his (Acro Biosystems), biotinylated (human, UniProt P42701 24-545, biotinylated) (assay: ELISA, periplasmic extract).
T1 construct: bought; captured on Neutravidin in the ELISA; also called Bio-huIL-12Rβ1-His

Binder | OD450 nm
B1 | 0.479
B2 | 0.151
B3 | 0.822
B4 | 2.84
B5 | 3.03
B6 | 3.14
B7 | 2.93
B8 | 1.98

These binders were tested against T2, human IL-12RB1 with C-terminal FLAG tag, transiently expressed on HEK-293T cells (human, UniProt P42701 24-662) (assay: FACS, periplasmic extract, HEK-293T).
T2 construct: whole, on cells

Binder | FOB [fold]
B1 | 160
B2 | 132
B3 | 43
B4 | 80
B5 | 82
B6 | 75.1
B7 | 88
B8 | 117

Each binder was assayed against T3, cyno IL-12RB1 with C-terminal FLAG tag, transiently expressed on HEK-293T cells (cyno, UniProt A0A2K5VWV1 24-662) (assay: FACS, periplasmic extract, HEK-293T).
T3 construct: whole, on cells

Binder | FOB [fold]
B1 | 121
B2 | 106
B3 | 19
B4 | 88
B5 | 88
B6 | 50
B7 | 82
B8 | 120

These binders were tested against human IL-12 receptor (IL-12Rβ1 and IL-12Rβ2) on HEK-Blue IL-12 cells (human, UniProt P42701 24-662; Q99665 24-862) (assay: cell-based or functional assay).
human IL-12 receptor (IL-12Rβ1 and IL-12Rβ2) on HEK-Blue IL-12 cells, sequence (Q99665 24-862, chain 2 of 2, other chains not shown): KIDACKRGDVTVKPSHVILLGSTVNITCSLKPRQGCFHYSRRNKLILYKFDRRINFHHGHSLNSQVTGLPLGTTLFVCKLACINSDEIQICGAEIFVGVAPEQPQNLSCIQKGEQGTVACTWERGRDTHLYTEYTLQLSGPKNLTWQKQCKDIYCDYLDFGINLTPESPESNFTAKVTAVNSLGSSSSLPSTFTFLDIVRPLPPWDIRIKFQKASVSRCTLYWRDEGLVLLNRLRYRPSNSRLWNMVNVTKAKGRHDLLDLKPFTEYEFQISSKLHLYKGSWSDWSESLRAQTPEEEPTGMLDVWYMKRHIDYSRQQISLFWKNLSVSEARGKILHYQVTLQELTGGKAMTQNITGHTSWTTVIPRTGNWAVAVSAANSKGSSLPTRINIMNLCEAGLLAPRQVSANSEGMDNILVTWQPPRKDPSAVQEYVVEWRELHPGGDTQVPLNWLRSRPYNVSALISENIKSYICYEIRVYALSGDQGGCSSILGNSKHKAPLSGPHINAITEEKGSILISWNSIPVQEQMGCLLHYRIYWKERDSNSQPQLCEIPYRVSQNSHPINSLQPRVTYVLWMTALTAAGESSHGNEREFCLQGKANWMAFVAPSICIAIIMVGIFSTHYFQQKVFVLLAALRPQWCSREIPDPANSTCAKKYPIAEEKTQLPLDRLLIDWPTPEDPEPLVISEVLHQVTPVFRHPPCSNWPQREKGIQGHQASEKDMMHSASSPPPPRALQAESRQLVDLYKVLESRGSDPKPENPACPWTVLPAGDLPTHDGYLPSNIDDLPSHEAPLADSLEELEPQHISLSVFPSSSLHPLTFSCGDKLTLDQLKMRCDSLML

Binder | EC50 | Max Absorbance
B9 | > 100 nM | 0.43
B10 | > 100 nM | 0.42
B11 | > 100 nM | 0.42
B12 | > 100 nM | 0.41
B13 | > 100 nM | 0.41
B14 | 4e-09 M (implied) | 0.4
B15 | > 100 nM | 0.4
B16 | 1e-09 M (implied) | 0.39
B17 |  | 0.37
B18 | 3.2e-09 M (implied) | 0.37
B19 |  | 0.36
B20 |  | 0.35
